# In the DeepSol protein solubility set:
# Test: soluble on expression in E. coli; label from the status in PepcDB or PDB records
row,Sequence,soluble on expression in E. coli
1,MNPISRVAIIGECMVELKKHDGVLQQGFGGDTLNTAVYLSRLTKQHGVETSYVTGLGHDPFSREMLTAWREEGINTDMVYLSEDKLPGIYAIETAEDGERSFFYWRNDAAAKYWLRERALLSLVKDLCQHQMIYLSGISLAIISDDCRQMLIELLTMCRKEGVKIAFDNNFRPKLWPNIEQARDFYSKILSVTDMAFLTFDDEVMLWGDKHE,not soluble
2,MCINLQKMCKKCAKMCKICAKVCKKCAKNVQKKCKKCGKMCKKCAKKCLKKSKFSDPRNPKMLPTSLLVCSTGIPIECSAELLSKFKTRRI,soluble
3,ETIELYKSSVPSGKEAGKNALAITNQQLISALENAAKDNKTSQPQARSLTASDQVQITQSSDKVIGYITTSNLDIDNNNTFDVGKLNGDKSTSKIIVNATLKTLNKINTLQSEEGIILPHPQKYKSTDPQAVATVQGPSIIGVHANAKENAETQKFINW,not soluble
4,MSLGQFSISEVGHFYIAANTSLKHIHVTCAIIERDGLVLAAQRSAVMSLPLKWEFPGGKIDPGESPEECLRRELVEEMAVHVRVGQSLPVSTHQYPTFSVTLYPFLCTIESGEIVLHEHVAVTWLPPDELHTLDWAEADLPVIKSYQQGCRMRDHEGHHHHHH,not soluble
5,MKIGIFDSGAGGMTVLKAIREAYPNVDVVYLGDTARVPYGIRSKETIVRYSKECANFLKDKGVDLLVVACNTASAYALEELKREFPFPVFGVIEPGVKEALRKSKTKRIGVIGTQATIKSGAYQEALKRAGAEVYSKACPLFVPLVEEGMIEGEIPKKVVEHYLKDFKGKVDTLILGCTHYPLLKREIQNFLEGVNVIDSSRATAKSLKDFVKNEGSGSLELYFTDRSQNLERLIKLILGEEVEPKITSEVFVL,soluble
6,MLSARTMKEVVYWSPKKVADWLLENAMPEYCEPLEHFTGQDLINLTQEDFKKPPLYRVSSDNGQRLLDMIETLKMEHHMEAHKN,soluble
7,MGSDKIHHHHHHMKGMEEVVIDAKDMHYRELNEKIHEILRENPDIKKIVLKNVLGQRFIADGIQKKDLTIEIYGIPGGDLGMFMSGPTIIVHGNAEFAPGNTMDDGTIVIYGSSGDVTAHSMRGGKVFVRGDVGYRSGIHMKAYKDKVPVLVIGGRAKDFLGEYMAGGIIIVLNIDEKGNDLGKVKGRMIGTGIHGGAIYIRGEIDKDQLGVAADIKEFTEEDLEKIKPYIEEFCKWFNLPEDVKNKLLNSKWTKIAPISKRPFGKLYTPDLM,not soluble
8,QSSKSPLTAALGLDISGTPIITDLQKMPHGLIAGATGSGKSVCINSLLVSLLYKATPDQLKLLLIDPKMVELAPYNRIPHLVSPVITDAKAATVALKWAVEEMERRYQLFSHTGVRNMEKYNEYASHPDHTGEKLPYILIVIDELADLMMVAPNDVEESISRIAQKARACGIHMIVATQRPSV,not soluble
9,MTICRPGKGHLMIQFDAVHKRFPNGTTAVHDLSLEMPEGGVTVLVGSSGCGKTTTLRMINRMVDPTSGTIRVGGRDILEQDAAELRRSIGYVIQQSGLFPHRTVLDNIATVPLLLGWGRRKARARAAELLDTVGLAADAGRRYPHQLSGGQQQRVGVARALAADPPVLLMDEPFGAVDPVVRTQLQDELLRLQKELSKTIVFVTHDIDEAVRLGDQIAVFRTGGHLVQCASPAELLARPADDFVADFLGAERGLKLLSLTTLADVPQGPAPEGGAWTLVLDEARRPQHWRSKDGAELPVRPLRDRDSLLAALNESVASPNGLTVRVDADGVLTGVSSRDDIHEHAGRAHSEASVAALEHHHHHH,not soluble
10,SATPLDNCLRPFPDPMVKVTAETKKISEVSSYVSANNKKNSFWGSGLLYPVALLRCQDCWAGHQTHVLSKEFTSYFSSGAGREAQHQPSAVLGSLIWLRRVYLLRAMVVHGGSQPCQRWLVIRMEVGGHPSFPGHAWLTFHLN,soluble
11,MIRLVIVEPEGSYNLGFISRLAKNFLVDELYIVNPHCDLEEAKKFSAKGLEYLEKAKIVNNFDEAIKDVELKIATSSIADIKGDILRKSIRPWELPRIIEGKKVALIFGRESVGLTREEIAKSDLLLFIPGNPEYPVLNLSHAVGIVLYEIWKSRGENKPVISGEAISLIDKYSRDLVNLIKSNEGDEAMYIALKRALIKGIGDEEEARTIIRLLRKLYIKLTRKIE,soluble
12,MDMPVDPNEPTYCLCHQVSYGEMIGCDNPDCSIEWFHFACVGLTTKPRGKWFCPRCSQER,soluble
13,MKMDTGALTFQQKIYWLVKQIPLGRVATYGQIAALCGWPRHGRYVGYALYRVAPNSDIPWHRVVNAQGKISYAPQRRGTDELQRWRLAAEGIIFTAGLEHHHHHH,not soluble
14,SALTCEVCVLTVPVVSNSTPGSLYVVATPIGNLDDMSVRALKVLREVALIAAEDTRHSARLMQHFGISTPLAACHEHNERDEGSRFITRLLAGDDVALISDAGTPLISDPGYHLVRQARAVGVPVVP,not soluble
15,MGSDKIHHHHHHMDHQMEDLLEHWLPLADDAWVLAVITHIQGSSYRKPGAMMLFHEFGQGAGILSGGCLEADLRRHAQNAMLSHQIGCVSYDATDESDASYRLGCGGKVDIMLIPLLKENHDLGLVDIVQAFRKGQSGFYQLPLVPAGSDARSYSAQFYSSENVPFATADFAKAGVLSQPSGDTLIIPIRPRFHLGIFGGGIDAKPVAAIAHSLGWQVSVFDSRTAYARTADFPHAHIVKQSPDDAAALIANLDCAVVMHHNLTLDAAALKVIQPFALKYVALLGPAHRRDKVLSIAALNVDSFSGFFSAPAGLALGGELPSAIALSILAQCHGVLHGAAFSTLDGMMP,not soluble
16,MGSDKIHHHHHHMDFYTIQFDDLANFESAGIFVNNKKWKHSHRILSSFEIIVMIEGVLPIQVSNTQYRVKPNKLLIIPPSAEHFGFEFTTSDIKFIWIHFNCSKFKINDEKSLFLSNIENSSIILPNYSNKLDVQRIILMSNHLLDITQENVNSIYLNLFLNSTLHEINYQTQKILKERQLSNLYLQPVREFIRINCFEDIDLGSIATHFNYNKSYLSRKYKKVMGIGIKQQINKFRISRAEYLLSNTSLTVQEISSQIGFNDEKYFMRLFRKNTNSTPSEYRKLYSQRHFNKE,not soluble
17,MLDLLVVAPHPDDGELGCGGTLARAKAEGLSTGILDLTRGEMGSKGTPEEREKEVAEASRILGLDFRGNLGFPDGGLADVPEQRLKLAQALRRLRPRVVFAPLEADRHPDHTAASRLAVAAVHLAGLRKAPLEGEPFRVERLFFYPGNHPFAPSFLVKISAFIDQWEAAVLAYRSQFTGEAASETVGPKGVEARKAMRRYWGNYLGVDYAEPFVSPLPVLYVPWSRA,soluble
18,MGSDKIHHHHHHMAGRRAIAQNLLISNNDRQERTTRMNDKRNCFLPHDKLQHLIDSLQNAGYSCVGPQVRDGAIVYDVLTRAEQLPWGMRDHQEPGGYRLEQIPERKAFAFANGPQGIKPLLFKPQETVWRVERDEQGKLCFKPHQPDETPVAIIGSRACDLAAMSIQDKVFIENNKPDPRYKRRREQLFVVAVNCTYSSANCFCVSAGTGPAVNNSFDILMTEIEDGFVVEAGSDKGKKIMNQLDLHDAKSAQCTDAQNNVKQAAALQTKRIPLDNKRDLRDLLFSNLNHTRWDDVAERCLSCGNCTLVCPTCFCHSEVEKPGLDGCTSEHHREWDSCFTTGHTYLNGKIIRDDTKKQYRQWLTHKVGSWFDQFDTSGCVGCGRCVTWCPVGIDITEELAAISGESNARKIENE,not soluble
19,TPAQLISIAVTPINPSVAKGLIRQFKATGTYTDHSVQDVTALATWSSSNPGKAMVNNVTGSVTTVATGNTNIKATIDSISGSSVLNVTPALLTSIEITPTINSITHGLTKQFKATGIFSDKSTQNLTQLVTWISSDPSKIEIENTSGKKGIATASKLGSSNIKAVYKFIQSSPIPITVTDLKLKSITISPSSSSIAKGLTQQFKAIGTFIDGSEQEITNLVTWYSSKSDVAPINNAANAKGLATALSIGSSNISAIYNSISSNKINFNVSAATLDSIKINPVNNNIAKGLTQQYTALGVYSDSTIQDISDSVTWSSSNSDSISISNSTETKGKATALQIGNSKITATYNSISENIDITVSAATL,not soluble
20,AKWPHLKVGGAILVAPAEPRHSDRTESFGPIFEESLGVPAYVVSSRNDPWMSFTQAERLARAWRADVVDLGFAGHINVDSGFGPWPGGVVLRDELARRPVP,not soluble
21,GPGSMYSYNNIIEKNEPCKKDVIENLQLSLSPTGAVRQFRVDERVDVVVVEGFLSNDECDQLIAACEKVGYTFWRQKDPNAEGEEAGCCGEAEARAFRVVDTIEANFPTLSQVLSSRIEKVVKLDPKTFSPSMEGAEELFARDLEGTWVPQQLAQNLLFARYGAGGHFSPHIDGSTIVDINTRSLYTLLIYLNDCEAGGETVLFDGEQAEVLKRDAESGKYIGRRENRIGAVKPTKGTAAFFYYDVLHEGSPVGEGHSKYIIRGDFLYRRNPPILTAENDMKAFELYEKARVAESNGDVFAACEMFQRVRKLSKGVAELYQL,soluble
22,SAFQKAASLLGAPIGHDFCVISLSDLMTPWDRIEKRIHAAATADFVTAVYNPKSEGRYWQLYRLKEIFLKERDPETPVGFVRQAGRKEETVTITTLQEFDPEQVDMFTVVLIGNSQSYHQEG,soluble
23,MGSDKIHHHHHHMAEGSSSSSLTRLMSILDIFTETRPEWSSDDMMTELGYPRPTLYRYLKVLTDAGMLASNGHGIYTLGPKVVEMDHLLRLSDRLVAIGRPVVAQLTEQYACTAFLVRWYRNRLLCMHSETSLEAPLSSYPRGRVMPMNRGAIARTILAHLQSRKARKIIESFAPEGPEDARKAYIAEQAAALRSVRRNGYAIAFGEVTPGVVGVASPIFDEAAEPAGALCMTMRQEDCPHELRTLITQAVPAAANSITVTLRQSRHTGTDHTHLPLQEEVKDR,not soluble
24,MSLGDSRGRVFSWSVSDQPGRSAADHWVKDEGGDSCSGCSVRFSLTERRHHCRNCGQLFCQKCSRFQSEIKRLKISSPVRVCQNCYYSLQHERGAEDGPRNCEGHHHHHH,soluble
25,MGSDKIHHHHHHMAPRKVIITCAVTGSVHTPSMSPYLPVTPDQIASDAIAAAEAGASILHLHARDPKDGRPTADPDVFMQFLPRIKQATDAVINITTGGSSLMTLDQRLAAPLRAEPEMCSLNMGSMNFALFPMLDKPREWQHEWEPKLLEATRDTIFKNTFADMEGVLERLGKGCGTRFEFECYDVGHLYSLAHFRDRGLVSGPLFIQFVLGILGGIGADPDNLVHMKRIADKLFGDSYQFSVLAAGRQQMPLISIAAAMGGNVRVGLEDSLYDGRQLAKSNADQVRRIRGILDGLSLEVATPAEAREMLALKGGDRVAF,not soluble
